The target in assay [1] is Bluetongue virus core protein VP7 (in the purified BTV-1 virion) (bluetongue virus BTV-1). The assay can be described thus: cryo-EM structure.
The target of assay [2] is Bluetongue virus membrane penetration protein VP5 (in the purified BTV-1 virion) (bluetongue virus BTV-1). The assay can be described thus: cryo-EM structure.
Assay [3] concerns the target purified wild-type VP5 protein (bluetongue virus BTV-1). Kind of assay: SEC.

The text below walks through data of article PMC9015746.

In assay [1], “Bluetongue virus core protein VP7 (in the purified BTV-1 virion) (natural protein)” displayed a stoichiometry N of 3.

Turning to “Bluetongue virus membrane penetration protein VP5 (in the purified BTV-1 virion) (natural protein)”, the stoichiometry N in assay [2] was found to be 3. On to “purified wild-type VP5 protein (natural protein)”, for which, in assay [3], the stoichiometry N stood at 3.

As a reminder, the stoichiometry N is the number of molecules, sites or subunits per partner or assembly.
